Results taken from patent publication US20230192886A1 (published 2023).
Values belong to the binder of their own block, whether it stands above or below them.

Target: T1, PRAME (PRAME-004) peptide on HLA-A*02:01 (human)
T1 peptide: SLLQHLIGL
Assay: cytokine release

binding result: recognises
B1: R17P1A9 (TCR, V domains shown)
Valpha: QKEVEQNSGPLSVPEGAIASLNCTYSDRGSQSFFWYRQYSGKSPELIMSIYSNGDKEDGRFTAQLNKASQYVSLLIRDSQPSDSATYLCAVLNQAGTALIFGKGTTLSVSS
Vbeta: DSGVTQTPKHLITATGQRVTLRCSPRSGDLSVYWYQQSLDQGLQFLIQYYNGEERAKGNILERFSAQQFPDLHSELNLSSLELGDSALYFCASSAETGPWLGNEQFFGPGTRLTVL

binding result: recognises
B2: R16P1E8 (TCR, V domains shown)
Valpha: QKEVEQDPGPLSVPEGAIVSLNCTYSNSAFQYFMWYRQYSRKGPELLMYTYSSGNKEDGRFTAQVDKSSKYISLFIRDSQPSDSATYLCAMSEAAGNKLTFGGGTRVLVKP
Vbeta: EAGVAQSPRYKIIEKRQSVAFWCNPISGHATLYWYQQILGQGPKLLIQFQNNGVVDDSQLPKDRFSAERLKGVDSTLKIQPAKLEDSAVYLCASSYTNQGEAFFGQGTRLTVV

binding result: recognises
B3: R17P1D7 (TCR, V domains shown)
Valpha: AQTVTQSQPEMSVQEAETVTLSCTYDTSESDYYLFWYKQPPSRQMILVIRQEAYKQQNATENRFSVNFQKAAKSFSLKISDSQLGDAAMYFCAYRWAQGGSEKLVFGKGTKLTVNP
Vbeta: EADIYQTPRYLVIGTGKKITLECSQTMGHDKMYWYQQDPGMELHLIHYSYGVNSTEKGDLSSESTVSRIRTEHFPLTLESARPSHTSQYLCATELWSSGGTGELFFGEGSRLTVL
